In the supplement of paper PMC11316812:
± gives the standard deviation of the averaged measurements.

Experiments:
[1] = system: MCF7; assay: percentage of EdU-negative (G0-arrested) nuclei per well, 72 h; higher = more G0 arrest; details: reference: sequence is the full UniProt precursor, the tested protein was the secreted form or ectodomain
[2] = system: hTERT-HMEC; assay: as above; details: reference: sequence is the full UniProt precursor, the tested protein was the secreted form or ectodomain
[3] = protein concentration 0.0225 µM
[4] = protein concentration 0.00725 µM
[5] = protein concentration 0.0725 µM
[6] = protein concentration 0.0119275 µM
[7] = protein concentration 0.119275 µM
[8] = protein concentration 0.01503 µM
[9] = protein concentration 0.1503 µM
[10] = protein concentration 0.03125 µM
[11] = protein concentration 0.3125 µM
[12] = protein concentration 0.0228571 µM
[13] = protein concentration 0.228571 µM
[14] = protein concentration 0.0284075 µM
[15] = protein concentration 0.284075 µM
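Note: secreted proteins added to cultured cells, EdU pulse at the end, nuclei found by Hoechst imaging, EdU status from nuclear versus surrounding ring intensity ratio, PBS as neutral control.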

| Sequence | percentage of EdU-negative [1, 3] [%] | percentage of EdU-negative ([1]; protein concentration 0.225 µM) [%] | percentage of EdU-negative [2, 3] [%] | percentage of EdU-negative ([2]; protein concentration 0.225 µM) [%] | also measured |
| --- | --- | --- | --- | --- | --- |
| MLGQVVTLILLLLLKVYQGKGCQGSADHVVSISGVPLQLQPNSIQTKVDSIAWKKLLPSQNGFHHILKWENGSLPSNTSNDRFSFIVKNLSLLIKAAQQQDSGLYCLEVTSISGKVQTATFQVFVFESLLPDKVEKPRLQGQGKILDRGRCQVALSCLVSRDGNVSYAWYRGSKLIQTAGNLTYLDEEVDINGTHTYTCNVSNPVSWESHTLNLTQDCQNAHQEFRFWPFLVIIVILSALFLGTLACFCVWRRKRKEKQSETSPKEFLTIYEDVKDLKTRRNHEQEQTFPGGGSTIYSMIQSQSSAPTSQEPAYTLYSLIQPSRKSGSRKRNHSPSFNSTIYEVIGKSQPKAQNPARLSRKELENFDVYS [Q9BZW8] | 25.82 ± 0.11 | 26.1 ± 1.3 | 5.21 ± 0.31 | 6.56 ± 1.1 | – |
| MAGPPRLLLLPLLLALARGLPGALAAQEVQQSPHCTTVPVGASVNITCSTSGGLRGIYLRQLGPQPQDIIYYEDGVVPTTDRRFRGRIDFSGSQDNLTITMHRLQLSDTGTYTCQAITEVNVYGSGTLVLVTEEQSQGWHRCSDAPPRASALPAPPTGSALPDPQTASALPDPPAASALPAALAVISFLLGLGLGVACVLARTQIKKLCSWRDKNSAACVVYEDMSHSRCNTLSSPNQYQ | 25.1 ± 0.98 | 24.68 ± 0.088 | 5.29 ± 0.21 | 4.88 ± 0.12 | – |
| MPSWALFMVTSCLLLAPQNLAQVSSQDVSLLASDSEPLKCFSRTFEDLTCFWDEEEAAPSGTYQLLYAYPREKPRACPLSSQSMPHFGTRYVCQFPDQEEVRLFFPLHLWVKNVFLNQTRTQRVLFVDSVGLPAPPSIIKAMGGSQPGELQISWEEPAPEISDFLRYELRYGPRDPKNSTGPTVIQLIATETCCPALQRPHSASALDQSPCAQPTMPWQDGPKQTSPSREASALTAEGGSCLISGLQPGNSYWLQLRSEPDGISLGGSWGSWSLPVTVDLPGDAVALGLQCFTLDLKNVTCQWQQQDHASSQGFFYHSRARCCPRDRYPIWENCEEEEKTNPGLQTPQFSRCHFKSRNDSIIHILVEVTTAPGTVHSYLGSPFWIHQAVRLPTPNLHWREISSGHLELEWQHPSSWAAQETCYQLRYTGEGHQDWKVLEPPLGARGGTLELRPRSRYRLQLRARLNGPTYQGPWSSWSDPTRVETATETAWISLVTALHLVLGLSAVLGLLLLRWQFPAHYRRLRHALWPSLPDLHRVLGQYLRDTAALSPPKATVSDTCEEVEPSLLEILPKSSERTPLPLCSSQAQMDYRRLQPSCLGTMPLSVCPPMAESGSCCTTHIANHSYLPLSYWQQP | – | – | – | – | percentage of EdU-negative [1, 4]: 25.4 ± 0.65%; percentage of EdU-negative [1, 5]: 26.02 ± 0.25%; percentage of EdU-negative [2, 4]: 4.77 ± 0.37%; percentage of EdU-negative [2, 5]: 6.04 ± 0.21% |
| MKAWGTVVVTLATLMVVTVDAKIYERCELAARLERAGLNGYKGYGVGDWLCMAHYESGFDTAFVDHNPDGSSEYGIFQLNSAWWCDNGITPTKNLCHMDCHDLLNRHILDDIRCAKQIVSSQNGLSAWTSWRLHCSGHDLSEWLKGCDMHVKIDPKIHP [Q96QH8] | 25.8 ± 1.2 | 25.03 ± 0.22 | 6.28 ± 1.5 | 7.91 ± 0.26 | – |
| MVNLAAMVWRRLLRKRWVLALVFGLSLVYFLSSTFKQEERAVRDRNLLQVHDHNQPIPWKVQFNLGNSSRPSNQCRNSIQGKHLITDELGYVCERKDLLVNGCCNVNVPSTKQYCCDGCWPNGCCSAYEYCVSCCLQPNKQLLLERFLNRAAVAFQNLFMAVEDHFELCLAKCRTSSQSVQHENTYRDPIAKYCYGESPPELFPA [Q9H741] | 26.4 ± 1.1 | 27 ± 2.9 | 5.34 ± 0.37 | 7.52 ± 0.6 | – |
| MQPLWLCWALWVLPLASPGAALTGEQLLGSLLRQLQLKEVPTLDRADMEELVIPTHVRAQYVALLQRSHGDRSRGKRFSQSFREVAGRFLALEASTHLLVFGMEQRLPPNSELVQAVLRLFQEPVPKAALHRHGRLSPRSARARVTVEWLRVRDDGSNRTSLIDSRLVSVHESGWKAFDVTEAVNFWQQLSRPRQPLLLQVSVQREHLGPLASGAHKLVRFASQGAPAGLGEPQLELHTLDLGDYGAQGDCDPEAPMTEGTRCCRQEMYIDLQGMKWAENWVLEPPGFLAYECVGTCRQPPEALAFKWPFLGPRQCIASETDSLPMIVSIKEGGRTRPQVVSLPNMRVQKCSCASDGALVPRRLQP | – | – | – | – | percentage of EdU-negative [1, 6]: 25.8 ± 0.59%; percentage of EdU-negative [1, 7]: 26.51 ± 0.11%; percentage of EdU-negative [2, 6]: 5.05 ± 0.39%; percentage of EdU-negative [2, 7]: 5.49 ± 0.4% |
| MIAFLLTSVLMIPHAGGHPLDTPHLPQELPPGLPNNINITFFSGMFKNVESVAEIFDCLGPHFTWLQAVFTNFPVLIQFVNGMKCVAGLCPRDFEDYGCTCRFEMEGLPVDESDSCCFQHRRCYEEAAEMDCLQDPAKLSTEVNCVSKKIICESKDNCEHLLCTCDKAAIECLARSSLNSSLNLLDTSFCLAQTPETTIKEDLTTLLPRVVPVEPTDTSLTALSGEEAGHDQEGVGAARATSPPGSAEIVATRVTAKIVTLVPAGIKSLGLAVSSVENDPEETTEKACDRFTFLHLGSGDNMQVMPQLGEMLFCLTSRCPEEFESYGCYCGQEGRGEPRDDLDRCCLSHHCCLEQVRRLGCLLERLPWSPVVCVDHTPKCGGQSLCEKLLCACDQTAAECMTSASFNQSLKSPSRLGCPGQPAACEDSLHPVPAAPTLGSSSEEDSEEDPPQEDLGRAKRFLRKSLGPLGIGPLHGR | 26.2 ± 2.5 | 25.7 ± 0.78 | 5.21 ± 0.36 | 5.66 ± 0.11 | – |
| MAHRPPSPALASVLLALLLSGAARAAEIVGGHEAQPHSRPYMASLQMRGNPGSHFCGGTLIHPSFVLTAAHCLRDIPQRLVNVVLGAHNVRTQEPTQQHFSVAQVFLNNYDAENKLNDVLLIQLSSPANLSASVATVQLPQQDQPVPHGTQCLAMGWGRVGAHDPPAQVLQELNVTVVTFFCRPHNICTFVPRRKAGICFGDSGGPLICDGIIQGIDSFVIWGCATRLFPDFFTRVALYVDWIRSTLRRVEAKGRP | 25.4 ± 0.57 | 28.984 ± 0.026 | 4.55 ± 0.18 | 4.49 ± 0.19 | – |
| MLPCASCLPGSLLLWALLLLLLGSASPQDSEEPDSYTECTDGYEWDPDSQHCRDVNECLTIPEACKGEMKCINHYGGYLCLPRSAAVINDLHGEGPPPPVPPAQHPNPCPPGYEPDDQDSCVDVDECAQALHDCRPSQDCHNLPGSYQCTCPDGYRKIGPECVDIDECRYRYCQHRCVNLPGSFRCQCEPGFQLGPNNRSCVDVNECDMGAPCEQRCFNSYGTFLCRCHQGYELHRDGFSCSDIDECSYSSYLCQYRCINEPGRFSCHCPQGYQLLATRLCQDIDECESGAHQCSEAQTCVNFHGGYRCVDTNRCVEPYIQVSENRCLCPASNPLCREQPSSIVHRYMTITSERSVPADVFQIQATSVYPGAYNAFQIRAGNSQGDFYIRQINNVSAMLVLARPVTGPREYVLDLEMVTMNSLMSYRASSVLRLTVFVGAYTF | – | – | – | – | percentage of EdU-negative [1, 8]: 23.73 ± 0.068%; percentage of EdU-negative [1, 9]: 33 ± 1.2%; percentage of EdU-negative [2, 8]: 4.54 ± 0.11%; percentage of EdU-negative [2, 9]: 7.23 ± 0.73% |
| MALPFVLLMALVVLNCKSICSLGCDLPQTHSLSNRRTLMIMAQMGRISPFSCLKDRHDFGFPQEEFDGNQFQKAQAISVLHEMIQQTFNLFSTKDSSATWDETLLDKFYTELYQQLNDLEACMMQEVGVEDTPLMNVDSILTVRKYFQRITLYLTEKKYSPCAWEVVRAEIMRSFSLSANLQERLRRKE | – | – | – | – | percentage of EdU-negative [1, 10]: 45.45 ± 0.21%; percentage of EdU-negative [1, 11]: 48.29 ± 0.24%; percentage of EdU-negative [2, 10]: 22.9 ± 1.4%; percentage of EdU-negative [2, 11]: 28.6 ± 0.61% |
| MATHHTLWMGLALLGVLGDLQAAPEAQVSVQPNFQQDKFLGRWFSAGLASNSSWLREKKAALSMCKSVVAPATDGGLNLTSTFLRKNQCETRTMLLQPAGSLGSYSYRSPHWGSTYSVSVVETDYDQYALLYSQGSKGPGEDFRMATLYSRTQTPRAELKEKFTAFCKAQGFTEDTIVFLPQTDKCMTEQ | 27.3 ± 2.4 | 25.1 ± 1.9 | 4.95 ± 1.2 | 7.39 ± 0.34 | – |
| MRERPRLGEDSSLISLFLQVVAFLAMVMGTHTYSHWPSCCPSKGQDTSEELLRWSTVPVPPLEPARPNRHPESCRASEDGPLNSRAISPWRYELDRDLNRLPQDLYHARCLCPHCVSLQTGSHMDPRGNSELLYHNQTVFYRRPCHGEKGTHKGYCLERRLYRVSLACVCVRPRVMG [Q9H293] | – | – | – | – | percentage of EdU-negative [1, 12]: 24 ± 0.49%; percentage of EdU-negative [1, 13]: 36.9 ± 1.7%; percentage of EdU-negative [2, 12]: 5.07 ± 0.33%; percentage of EdU-negative [2, 13]: 5.25 ± 1% |
| MRVSGVLRLLALIFAIVTTWMFIRSYMSFSMKTIRLPRWLAASPTKEIQVKKYKCGLIKPCPANYFAFKICSGAANVVGPTMCFEDRMIMSPVKNNVGRGLNIALVNGTTGAVLGQKAFDMYSGDVMHLVKFLKEIPGGALVLVASYDDPGTKMNDESRKLFSDLGSSYAKQLGFRDSWVFIGAKDLRGKSPFEQFLKNSPDTNKYEGWPELLEMEGCMPPKPF [Q96BQ1] | – | – | – | – | percentage of EdU-negative [1, 14]: 27.2 ± 0.94%; percentage of EdU-negative [1, 15]: 26.6 ± 1.5%; percentage of EdU-negative [2, 14]: 5 ± 0.84%; percentage of EdU-negative [2, 15]: 6.345 ± 0.041% |
| MKSGLWYFFLFCLRIKVLTGEINGSANYEMFIFHNGGVQILCKYPDIVQQFKMQLLKGGQILCDLTKTKGSGNTVSIKSLKFCHSQLSNNSVSFFLYNLDHSHANYYFCNLSIFDPPPFKVTLTGGYLHIYESQLCCQLKFWLPIGCAAFVVVCILGCILICWLTKKKYSSSVHDPNGEYMFMRAVNTAKKSRLTDVTL [Q9Y6W8] | – | – | – | – | percentage of EdU-negative [1, 10]: 25.2 ± 1.7%; percentage of EdU-negative [1, 11]: 25.9 ± 0.78%; percentage of EdU-negative [2, 10]: 4.29 ± 0.34%; percentage of EdU-negative [2, 11]: 4.32 ± 0.26% |
